Data published in patent US20260002137.

Legend:
Assay in all cases: cell_activity
[1] = system: ProCreHRV (cyclized sCre with LEVLFQGP site) (Escherichia phage P1?); conditions: 293T; without HRV 3C protease 5±1%; with HRVp 49±4%; FLEx.2 module
[2] = system: sCre (truncated Cre, residues 19-343) (Escherichia phage P1?); conditions: 293T; by GFP MFI; similar % GFP+ cells as full-length
[3] = system: ProCre-LRGAG (cyclized sCre with AVP site) (Escherichia phage P1?); conditions: 293T; without AVP 4.5±0.6%; with AVP 40±1%; FLEx module with mCherry removed
[4] = system: cysCreTEV (cyclized sCre with ENLYFQS site) (Escherichia phage P1?); conditions: 293T; uncleaved (mock); with TEVp GFP MFI similar to non-cyclized sCre

Substance “FLEx DiO cassette with loxP and lox2272 pairs” has an activity [1] of 5 % GFP+ cells, a Cre recombination activity (GFP reporter MFI) (% of full-length Cre) [2] of 77 and an activity [3] of 4.5 % GFP+ cells. The activity [4] was 3.2 % GFP+ cells.
